Laboratory results published in patent US20230052369A1 (Zymeworks, published 2023).
Changes are numbered by the printed parent chain. Each block holds one binder with its values, some of them ahead of it.

Tests used:
[1] = molecular target: T1, recombinant His-tagged human FRα (human, UniProt P15328 25-234); assay: BLI, purified, average n=2
T1 construct: Bought protein; also called hFRα; FRα-HIS
Method: (§1) The assay buffer used was KB buffer (kinetics buffer, composed of PBS pH 7.4, 0.1% BSA, 0.02% Tween 20, 0.05% sodium azide) supplemented with 0.06% Tween 20. The experiment was conducted at 25° C. with a shake speed of 1000 rpm.
(§2) Data analysis was performed using the Data analysis software 9.0′ (ForteBio). The reference-subtracted binding curves were globally fitted to the 1:1 interaction model to generate the binding kinetic parameters kₒₙ, koff, and the dissociation constant KD.

[2] = molecular target: T1, recombinant His-tagged human FRα; assay: BLI, supernatant, n=1
Method: as §1, §2

[3] = molecular target: T2, human 4-1BB, full-length, expressed on cells (human, UniProt Q07011 24-255); assay: flow cytometry, Jurkat-4-1BB
T2 construct: also called CD137; TNFRSF9
T2 sequence (Q07011 24-255): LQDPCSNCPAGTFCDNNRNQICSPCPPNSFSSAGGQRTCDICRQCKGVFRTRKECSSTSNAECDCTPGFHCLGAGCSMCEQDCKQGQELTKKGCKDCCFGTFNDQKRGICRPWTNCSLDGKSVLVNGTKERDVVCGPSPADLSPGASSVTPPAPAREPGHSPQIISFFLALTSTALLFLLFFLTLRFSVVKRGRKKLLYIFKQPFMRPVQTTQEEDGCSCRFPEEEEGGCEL
Method: Jurkat T cells engineered to stably express human 4-1BB were used to measure binding of antibodies to human 4-1BB. Antibodies were diluted in 5 μl FB (PBS 2% FCS) 1:3 from stock in wells of a 96 V-well plate, and cells added on top. The cells were then left on ice for 30 minutes for the antibodies to bind. The cells were then washed twice in FB, and then incubated in 50 μl FB containing 2 μg/ml goat anti-human Alexa647 antibody (Jackson Immunoresearch). The cells were then left on ice for a further 20 minutes, washed twice in FB, resuspended in 100 μl FB and analysed on a BD Fortessa™ X20. The subsequent data files were analysed using FlowJo™ and Prism 7 (GraphPad) using a four-parameter non-linear regression.

[4] = molecular target: T3, purified human monomeric 4-1BB (human, UniProt Q07011 24-186); assay: SPR, mean n=3;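 also: antibodies captured on anti-human Fc chip, 4-1BB injected as five-point two-fold series from 40 nM by single-cycle kinetics at 25 °C, sensorgrams fitted to 1:1 Langmuir model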
T3 construct: the assay used the 4-1BB part released by Factor Xa with the Fc removed; also called h4-1BB; human 4-1BB
T3 sequence (Q07011 other isoform, or with tags, fused parts or gaps limits assumed): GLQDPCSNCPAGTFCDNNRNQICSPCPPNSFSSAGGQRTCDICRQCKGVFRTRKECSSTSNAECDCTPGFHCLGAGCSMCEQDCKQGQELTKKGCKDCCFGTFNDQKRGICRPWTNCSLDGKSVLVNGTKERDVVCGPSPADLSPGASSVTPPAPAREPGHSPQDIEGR
Method: The anti-human Fc surface was prepared on a CMS Series S sensorchip by standard amine coupling methods as described by the manufacturer (GE Healthcare). Briefly, immediately after EDC/NHS activation, a 25 μg/mL solution of anti-human Fc in 10 mM NaOAc pH 4.5 was injected at a flow rate of 10 μL/min for 420 s until approximately 2000 resonance units (RUs) were immobilized on all four flow cells. The remaining active groups were quenched by a 420 s injection of 1M ethanolamine at 10 μL/min.
Antibodies for analysis were captured onto the anti-Fc surface by injecting 5 μg/mL solutions at a flow rate of 10 μL/min for 60 s. Using single-cycle kinetics, five concentrations of a two-fold dilution series of 4-1BB starting at 40 nM (for both supernatant and purified antibody runs) with a blank buffer control were sequentially injected at 40 μL/min for 180 s with a 600 s dissociation phase, resulting in a set of sensorgrams with a buffer blank reference. Experiments were performed at a constant temperature of 25° C. The anti-human Fc surfaces were regenerated to prepare for the next injection cycle by one pulse of 10 mM Glycine/HCl pH 1.5 for 120 s at 40 μL/min. Blank-subtracted sensorgrams were analyzed using Biacore™ T200 Evaluation Software v3.0. The blank-subtracted sensorgrams were then fit to the 1:1 Langmuir binding model.
Protein material post protein-A or SEC was assessed for binding to human 4-1BB.

T1 sequence (P15328 25-234 limits assumed): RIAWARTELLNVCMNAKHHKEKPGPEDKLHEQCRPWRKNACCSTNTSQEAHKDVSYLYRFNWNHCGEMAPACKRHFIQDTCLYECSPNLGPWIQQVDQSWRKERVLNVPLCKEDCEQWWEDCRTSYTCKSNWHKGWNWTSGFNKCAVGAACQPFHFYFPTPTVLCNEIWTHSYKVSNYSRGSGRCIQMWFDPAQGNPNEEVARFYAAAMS

B11: v23800 (antibody, human IgG1, kappa)
heavy: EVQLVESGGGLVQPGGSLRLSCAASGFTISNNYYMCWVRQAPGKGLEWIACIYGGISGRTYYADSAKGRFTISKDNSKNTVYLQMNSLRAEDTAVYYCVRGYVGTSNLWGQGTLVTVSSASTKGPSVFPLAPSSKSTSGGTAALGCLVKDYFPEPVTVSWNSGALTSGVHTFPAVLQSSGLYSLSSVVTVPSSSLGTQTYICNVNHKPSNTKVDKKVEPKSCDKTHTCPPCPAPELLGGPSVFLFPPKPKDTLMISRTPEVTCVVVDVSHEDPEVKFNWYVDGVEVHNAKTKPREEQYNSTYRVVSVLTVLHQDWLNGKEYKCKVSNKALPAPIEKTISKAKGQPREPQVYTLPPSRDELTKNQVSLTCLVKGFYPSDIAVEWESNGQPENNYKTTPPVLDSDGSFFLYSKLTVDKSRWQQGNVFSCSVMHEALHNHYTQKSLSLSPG
light: DIQMTQSPSSLSASVGDRVTITCQASQSIYSSLAWYQQKPGKAPKLLIYDASHLASGVPSRFSGSGSGTDFTLTISSVQPEDFATYYCQGGWYSSAATYVPNTFGGGTKVEVKRTVAAPSVFIFPPSDEQLKSGTASVVCLLNNFYPREAKVQWKVDNALQSGNSQESVTEQDSKDSTYSLSSTLTLSKADYEKHKVYACEVTHQGLSSPVTKSFNRGEC
notes: also called humanized 8K22 H2L2
Kd [2]: 36.5 nM

B12: v23802 (antibody, human IgG1, kappa)
heavy: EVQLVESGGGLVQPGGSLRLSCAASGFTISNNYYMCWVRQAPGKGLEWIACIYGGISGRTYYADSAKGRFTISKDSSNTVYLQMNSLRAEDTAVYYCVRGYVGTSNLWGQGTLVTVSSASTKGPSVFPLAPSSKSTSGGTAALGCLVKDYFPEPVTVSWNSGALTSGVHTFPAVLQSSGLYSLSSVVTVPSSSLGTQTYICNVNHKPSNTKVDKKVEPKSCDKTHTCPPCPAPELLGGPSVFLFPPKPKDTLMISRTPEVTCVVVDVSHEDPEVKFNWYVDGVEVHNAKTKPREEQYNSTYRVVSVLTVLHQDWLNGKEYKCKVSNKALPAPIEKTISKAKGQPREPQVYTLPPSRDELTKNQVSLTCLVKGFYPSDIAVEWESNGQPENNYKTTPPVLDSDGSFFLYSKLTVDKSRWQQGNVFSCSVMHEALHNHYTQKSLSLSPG
light: B11 light
notes: also called humanized 8K22 H4L2
Kd [1]: 8.53 nM
Kd [2]: 17.9 nM

B13: v23798 (antibody, human IgG1, kappa)
heavy: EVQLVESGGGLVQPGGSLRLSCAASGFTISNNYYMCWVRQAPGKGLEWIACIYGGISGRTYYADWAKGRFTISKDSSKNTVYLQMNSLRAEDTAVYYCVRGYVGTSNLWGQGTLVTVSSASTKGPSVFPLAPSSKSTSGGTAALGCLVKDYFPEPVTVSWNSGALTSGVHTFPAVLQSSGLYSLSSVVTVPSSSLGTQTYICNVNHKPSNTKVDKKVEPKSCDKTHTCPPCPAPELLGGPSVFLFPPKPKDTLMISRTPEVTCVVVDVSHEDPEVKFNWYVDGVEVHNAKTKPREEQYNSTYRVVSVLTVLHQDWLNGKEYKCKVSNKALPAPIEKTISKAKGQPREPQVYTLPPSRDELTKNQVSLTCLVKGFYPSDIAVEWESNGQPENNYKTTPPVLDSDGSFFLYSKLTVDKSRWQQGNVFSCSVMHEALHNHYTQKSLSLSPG
light: B11 light with V112I
notes: also called humanized 8K22 H5L1
Kd [1]: 6.85 nM
Kd [2]: 11.9 nM

B14: v23801 (antibody, human IgG1, kappa)
heavy: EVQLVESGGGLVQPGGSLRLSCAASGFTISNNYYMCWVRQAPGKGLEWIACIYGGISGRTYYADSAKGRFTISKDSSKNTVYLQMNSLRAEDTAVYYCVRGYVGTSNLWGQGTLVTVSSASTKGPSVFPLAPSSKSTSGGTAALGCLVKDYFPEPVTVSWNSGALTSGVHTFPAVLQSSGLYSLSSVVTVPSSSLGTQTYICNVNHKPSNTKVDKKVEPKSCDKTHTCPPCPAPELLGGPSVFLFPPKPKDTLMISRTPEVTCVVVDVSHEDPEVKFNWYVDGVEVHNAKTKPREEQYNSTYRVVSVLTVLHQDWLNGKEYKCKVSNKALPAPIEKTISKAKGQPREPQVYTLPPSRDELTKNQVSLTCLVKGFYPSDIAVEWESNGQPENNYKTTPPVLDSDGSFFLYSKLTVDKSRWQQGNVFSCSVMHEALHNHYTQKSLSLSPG
light: B11 light
notes: also called humanized 8K22 H3L2
Kd [1]: 8.66 nM
Kd [2]: 22.1 nM

B16: v23811 (antibody, human IgG1, kappa, V domains shown)
VH: EVQLVESGGGLVQPGGSLRLSCAASGFTISNNYYMCWVRQAPGKGLEWIACIYGGISGRTYYADSAKGRFTISKDSSKNTVYLQMNSLRAEDTAVYYCVRGYVGTSNLWGQGTLVTVSS
VL: DIQMTQSPSSLSASVGDRVTITCQASQSIYSSLAWYQQKPGKAPKLLIYDASHLASGVPSRFSGSGSGTDFTLTISSVQPEDAATYYCQGGWYSSAATYVPNTFGGGTKVEVKR
notes: also called humanized 8K22 H3L4
Kd [1]: 8.83 nM
Kd [2]: 22.5 nM

B17: v23815 (antibody, human IgG1, kappa, V domains shown)
VH: B16 VH with S76N
VL: B16 VL with G66R, S67Y
notes: also called humanized 8K22 H2L5
Kd [1]: 16.5 nM
Kd [2]: 16.7 nM

B18: v23804 (antibody, human IgG1, kappa, V domains shown)
VH: B16 VH with I49V, A50S, A66V, S76N, V81L
VL: B16 VL with G66R, S67Y, A83F
notes: also called humanized 8K22 H1L3
Kd [1]: 4.66 nM
Kd [2]: 9.29 nM

B19: v23805 (antibody, human IgG1, kappa, V domains shown)
VH: B16 VH with S76N
VL: B16 VL with G66R, S67Y, A83F
notes: also called humanized 8K22 H2L3
Kd [1]: 10.2 nM
Kd [2]: 16.2 nM

B20: v23796 (antibody, human IgG1, kappa)
heavy: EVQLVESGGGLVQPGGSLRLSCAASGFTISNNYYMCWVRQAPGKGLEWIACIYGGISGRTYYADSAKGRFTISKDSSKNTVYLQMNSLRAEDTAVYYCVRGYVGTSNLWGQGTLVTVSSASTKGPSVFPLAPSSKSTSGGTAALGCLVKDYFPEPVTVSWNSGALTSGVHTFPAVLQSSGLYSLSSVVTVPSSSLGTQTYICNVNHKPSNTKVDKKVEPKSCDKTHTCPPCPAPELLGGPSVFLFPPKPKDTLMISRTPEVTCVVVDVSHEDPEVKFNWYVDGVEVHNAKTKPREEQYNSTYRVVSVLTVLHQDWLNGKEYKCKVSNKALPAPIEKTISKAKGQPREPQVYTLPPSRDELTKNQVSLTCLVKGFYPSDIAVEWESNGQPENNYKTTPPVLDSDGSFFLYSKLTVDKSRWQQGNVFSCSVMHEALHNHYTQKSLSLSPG
light: B11 light with V112I
notes: also called humanized 8K22 H3L1
Kd [1]: 11.2 nM
Kd [2]: 22.2 nM

B21: v23808 (antibody, human IgG1, kappa, V domains shown)
VH: B16 VH with S65W
VL: B16 VL with G66R, S67Y, A83F
notes: also called humanized 8K22 H5L3
Kd [1]: 13.1 nM
Kd [2]: 19.3 nM

B22: v23814 (antibody, human IgG1, kappa, V domains shown)
VH: B16 VH with I49V, A50S, A66V, S76N, V81L
VL: B16 VL with G66R, S67Y
notes: also called humanized 8K22 H1L5
Kd [1]: 6.31 nM
Kd [2]: 10.1 nM

B23: v23803 (antibody, human IgG1, kappa)
heavy: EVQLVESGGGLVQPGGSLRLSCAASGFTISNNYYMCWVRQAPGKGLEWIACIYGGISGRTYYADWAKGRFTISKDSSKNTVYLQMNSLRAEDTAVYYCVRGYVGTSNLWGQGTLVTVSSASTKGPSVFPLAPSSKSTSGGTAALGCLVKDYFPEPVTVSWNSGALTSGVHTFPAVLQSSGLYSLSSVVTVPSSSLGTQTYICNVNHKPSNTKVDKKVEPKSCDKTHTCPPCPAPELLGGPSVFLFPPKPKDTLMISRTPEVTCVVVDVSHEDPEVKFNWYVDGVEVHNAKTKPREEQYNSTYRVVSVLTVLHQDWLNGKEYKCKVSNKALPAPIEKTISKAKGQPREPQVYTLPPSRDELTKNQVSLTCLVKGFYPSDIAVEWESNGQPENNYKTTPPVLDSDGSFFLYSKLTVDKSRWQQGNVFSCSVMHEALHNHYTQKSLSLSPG
light: B11 light
notes: also called humanized 8K22 H5L2
Kd [2]: 31.7 nM

B24: v23806 (antibody, human IgG1, kappa, V domains shown)
VH: B16 VH
VL: B16 VL with G66R, S67Y, A83F
notes: also called humanized 8K22 H3L3
Kd [1]: 7 nM
Kd [2]: 11.5 nM

B25: v23813 (antibody, human IgG1, kappa, V domains shown)
VH: B16 VH with S65W
VL: B16 VL
notes: also called humanized 8K22 H5L4
Kd [2]: 34.6 nM

B26: v23812 (antibody, human IgG1, kappa, V domains shown)
VH: EVQLVESGGGLVQPGGSLRLSCAASGFTISNNYYMCWVRQAPGKGLEWIACIYGGISGRTYYADSAKGRFTISKDSSNTVYLQMNSLRAEDTAVYYCVRGYVGTSNLWGQGTLVTVSS
VL: B16 VL
notes: also called humanized 8K22 H4L4
Kd [1]: 8.74 nM
Kd [2]: 19.5 nM

B27: v23797 (antibody, human IgG1, kappa)
heavy: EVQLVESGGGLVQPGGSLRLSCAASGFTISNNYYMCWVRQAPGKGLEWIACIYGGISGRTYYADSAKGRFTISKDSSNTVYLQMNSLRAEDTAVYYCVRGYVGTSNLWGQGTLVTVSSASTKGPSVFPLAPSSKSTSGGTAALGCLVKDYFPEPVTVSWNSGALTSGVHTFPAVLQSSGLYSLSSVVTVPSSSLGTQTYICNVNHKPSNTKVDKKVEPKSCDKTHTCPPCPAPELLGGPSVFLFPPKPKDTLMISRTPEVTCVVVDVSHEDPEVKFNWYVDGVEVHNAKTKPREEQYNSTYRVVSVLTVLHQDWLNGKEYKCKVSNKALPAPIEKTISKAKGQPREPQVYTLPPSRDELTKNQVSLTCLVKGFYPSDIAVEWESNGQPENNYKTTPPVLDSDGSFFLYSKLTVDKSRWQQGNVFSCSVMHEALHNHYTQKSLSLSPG
light: B11 light with V112I
notes: also called humanized 8K22 H4L1
Kd [1]: 11.9 nM
Kd [2]: 14.9 nM

B29: v23794 (antibody, human IgG1, kappa)
heavy: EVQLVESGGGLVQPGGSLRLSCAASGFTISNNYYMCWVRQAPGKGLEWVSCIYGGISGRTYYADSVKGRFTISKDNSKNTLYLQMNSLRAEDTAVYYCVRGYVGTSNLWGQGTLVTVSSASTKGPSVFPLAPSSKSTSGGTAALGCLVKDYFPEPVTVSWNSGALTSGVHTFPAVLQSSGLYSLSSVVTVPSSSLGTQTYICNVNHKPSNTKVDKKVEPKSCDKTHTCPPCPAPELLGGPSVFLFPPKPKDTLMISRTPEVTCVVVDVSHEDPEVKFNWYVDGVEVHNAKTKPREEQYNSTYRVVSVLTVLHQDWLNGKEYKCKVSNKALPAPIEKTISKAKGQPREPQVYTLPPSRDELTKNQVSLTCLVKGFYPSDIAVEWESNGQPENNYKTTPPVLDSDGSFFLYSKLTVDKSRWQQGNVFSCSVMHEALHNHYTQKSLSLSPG
light: B11 light with V112I
notes: also called humanized 8K22 H1L1
Kd [1]: 7.36 nM
Kd [2]: 15.1 nM

B30: v23807 (antibody, human IgG1, kappa, V domains shown)
VH: B26 VH
VL: B16 VL with G66R, S67Y, A83F
notes: also called humanized 8K22 H4L3
Kd [1]: 7.07 nM
Kd [2]: 10.9 nM

B31: v23810 (antibody, human IgG1, kappa, V domains shown)
VH: B16 VH with S76N
VL: B16 VL
notes: also called humanized 8K22 H2L4
Kd [2]: 35 nM

B32: v23799 (antibody, human IgG1, kappa)
heavy: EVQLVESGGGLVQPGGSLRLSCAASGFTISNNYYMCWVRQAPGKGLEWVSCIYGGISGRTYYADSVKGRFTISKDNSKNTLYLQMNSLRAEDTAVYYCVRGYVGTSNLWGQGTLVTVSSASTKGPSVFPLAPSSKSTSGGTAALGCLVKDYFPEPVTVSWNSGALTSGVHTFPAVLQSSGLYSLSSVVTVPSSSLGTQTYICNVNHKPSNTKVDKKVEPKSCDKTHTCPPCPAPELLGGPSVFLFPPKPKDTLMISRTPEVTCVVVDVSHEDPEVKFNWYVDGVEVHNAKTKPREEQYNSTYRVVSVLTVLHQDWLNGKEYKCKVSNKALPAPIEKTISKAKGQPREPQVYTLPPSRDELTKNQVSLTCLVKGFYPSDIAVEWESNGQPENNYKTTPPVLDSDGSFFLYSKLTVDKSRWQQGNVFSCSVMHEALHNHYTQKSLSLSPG
light: B11 light
notes: also called humanized 8K22 H1L2
Kd [1]: 4.8 nM
Kd [2]: 13.8 nM

B34: v23809 (antibody, human IgG1, kappa, V domains shown)
VH: B16 VH with I49V, A50S, A66V, S76N, V81L
VL: B16 VL
notes: also called humanized 8K22 H1L4
Kd [1]: 9.03 nM
Kd [2]: 12.1 nM

B35: v23795 (antibody, human IgG1, kappa)
heavy: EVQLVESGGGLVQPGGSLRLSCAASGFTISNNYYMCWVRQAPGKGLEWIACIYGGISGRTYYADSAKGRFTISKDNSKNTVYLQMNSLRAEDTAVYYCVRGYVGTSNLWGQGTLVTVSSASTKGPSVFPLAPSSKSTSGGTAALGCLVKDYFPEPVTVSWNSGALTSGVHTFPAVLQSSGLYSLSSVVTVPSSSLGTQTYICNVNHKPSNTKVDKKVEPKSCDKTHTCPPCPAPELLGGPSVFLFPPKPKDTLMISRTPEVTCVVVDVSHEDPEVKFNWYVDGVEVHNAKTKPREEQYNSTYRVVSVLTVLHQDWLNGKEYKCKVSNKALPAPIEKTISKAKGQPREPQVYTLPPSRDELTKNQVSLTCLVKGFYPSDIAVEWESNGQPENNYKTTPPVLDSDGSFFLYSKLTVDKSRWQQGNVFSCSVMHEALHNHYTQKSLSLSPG
light: B11 light with V112I
notes: also called humanized 8K22 H2L1
Kd [2]: 35.7 nM

Continued, values first:

Kd [1]: 4.11 nM
Kd [2]: 5.94 nM
B1: v23820 (antibody, human IgG1, kappa, V domains shown)
VH: QEQLVESGGGLVQPEGSLTLTCKASGFTISNNYYMCWVRQAPGKGLEWIACIYGGISGRTYYASWAKGRFTISKTSSTTVTLQMTSLTAADTATYFCVRGYVGTSNLWGPGTLVTVSS
VL: DIVMTQTPASVEAAVGGTVTIKCQASQSIYSSLAWYQQKPGQSPKLLIYDASHLASGVPSRFSGSRYGTEFTLTISGVQCDDAATYYCQGGWYSSAATYVPNTFGGGTEVVVKR
notes: FSA format; rabbit variable domains, human IgG1/kappa constant domains; also called 8K22 rabbit-human parental chimera

EC50 [3]: 30 nM
Kd [4]: 610 nM
B2: v28701 (antibody, human IgG1, kappa, L234A L235A, V domains shown)
VH: QVQLQESGPGLVKPSETLSLTCTVSGFSLISYGVHWVRQPPGKGLEWLGVIWSGGSTDYNPSLKSRVTISKDTSKNQFSLKLSSVTAADTAVYYCARNPLTATVMDYWGQGTLVTVSS
VL: DIQMTQSPSSLSASVGDRVTVTCRASQNVGTNVAWYQQKPGKAPKALIYSASYRDSGVPSRFSGSGSGTDFTLTISSVQPEDFATYYCQQYNSYPLTFGGGTKLEIKR
notes: also called humanized 5G8 H2L3

EC50 [3]: 55.6 nM
Kd [4]: 620 nM
B3: v28702 (antibody, human IgG1, kappa, L234A L235A, V domains shown)
VH: B2 VH
VL: B2 VL with F83L
notes: also called humanized 5G8 H2L4

EC50 [3]: 139 nM
Kd [4]: 227 nM
B4: v28711 (antibody, human IgG1, kappa, L234A L235A, V domains shown)
VH: B2 VH with L20I, T73N, F78V, L80F, V85L, V92I
VL: B2 VL with V21I, V78L, L104V
notes: also called humanized 5G8 H4L2

EC50 [3]: 51.6 nM
Kd [4]: 732 nM
B5: v28707 (antibody, human IgG1, kappa, L234A L235A, V domains shown)
VH: B2 VH with L20I, T73N, F78V, L80F, V85L, V92I
VL: B2 VL with V21I, Y36F, A46S, V78L, L104V
notes: also called humanized 5G8 H4L1

EC50 [3]: 2.34 nM
Kd [4]: 184 nM
B6: v28713 (antibody, human IgG1, kappa, L234A L235A, V domains shown)
VH: B2 VH with L20I, T73N, F78V, L80F, V85L, V92I
VL: B2 VL with F83L
notes: also called humanized 5G8 H4L4

EC50 [3]: 1.92 nM
Kd [4]: 159 nM
B7: v28706 (antibody, human IgG1, kappa, L234A L235A, V domains shown)
VH: B2 VH with L20I, F78V, L80F, V85L, V92I
VL: B2 VL with F83L
notes: also called humanized 5G8 H3L4

EC50 [3]: 3.46 nM
Kd [4]: 179 nM
B8: v28704 (antibody, human IgG1, kappa, L234A L235A, V domains shown)
VH: B2 VH with L20I, F78V, L80F, V85L, V92I
VL: B2 VL with V21I, V78L, L104V
notes: also called humanized 5G8 H3L2

EC50 [3]: 3.58 nM
Kd [4]: 811 nM
B9: v28703 (antibody, human IgG1, kappa, L234A L235A, V domains shown)
VH: B2 VH with L20I, F78V, L80F, V85L, V92I
VL: B2 VL with V21I, Y36F, A46S, V78L, L104V
notes: also called humanized 5G8 H3L1

EC50 [3]: 3.56 nM
Kd [4]: 229 nM
B10: v28712 (antibody, human IgG1, kappa, L234A L235A, V domains shown)
VH: B2 VH with L20I, T73N, F78V, L80F, V85L, V92I
VL: B2 VL
notes: also called humanized 5G8 H4L3

Kd [1]: 6.41 nM
Kd [2]: 9.5 nM
B15: v23817 (antibody, human IgG1, kappa, V domains shown)
VH: B26 VH
VL: B16 VL with G66R, S67Y
notes: also called humanized 8K22 H4L5

Kd [1]: 6.13 nM
Kd [2]: 17.4 nM
B28: v23818 (antibody, human IgG1, kappa, V domains shown)
VH: B16 VH with S65W
VL: B16 VL with G66R, S67Y
notes: also called humanized 8K22 H5L5

Kd [1]: 10.6 nM
Kd [2]: 10.4 nM
B33: v23816 (antibody, human IgG1, kappa, V domains shown)
VH: B16 VH
VL: B16 VL with G66R, S67Y
notes: also called humanized 8K22 H3L5
